Target: the molecule itself
Assay: SEC; purified hSIDT1-GFP on Superose 6 Increase 10/300 GL at 0.5 ml/min, intrinsic tryptophan fluorescence; column in 0.15 mM LMNG, 25 mM Tris-HCl pH 7.5, 200 mM NaCl; molecular weight read from a standard plot

B1: full-length human systemic RNAi defective transmembrane family member 1 (hSIDT1), C-terminal GFP-Strep-tag-II fusion (natural protein, UniProt Q9NXL6 20-827, looked up)
chain: ASPGHPAKSPRQPPAPRRDPFDAARGADFDHVYSGVVNLSTENIYSFNYTSQPDQVTAVRVYVNSSSENLNYPVLVVVRQQKEVLSWQVPLLFQGLYQRSYNYQEVSRTLCPSEATNETGPLQQLIFVDVASMAPLGAQYKLLVTKLKHFQLRTNVAFHFTASPSQPQYFLYKFPKDVDSVIIKVVSEMAYPCSVVSVQNIMCPVYDLDHNVEFNGVYQSMTKKAAITLQKKDFPGEQFFVVFVIKPEDYACGGSFFIQEKENQTWNLQRKKNLEVTIVPSIKESVYVKSSLFSVFIFLSFYLGCLLVGFVHYLRFQRKSIDGSFGSNDGSGNMVASHPIAASTPEGSNYGTIDESSSSPGRQMSSSDGGPPGQSDTDSSVEESDFDTMPDIESDKNIIRTKMFLYLSDLSRKDRRIVSKKYKIYFWNIITIAVFYALPVIQLVITYQTVVNVTGNQDICYYNFLCAHPLGVLSAFNNILSNLGHVLLGFLFLLIVLRRDILHRRALEAKDIFAVEYGIPKHFGLFYAMGIALMMEGVLSACYHVCPNYSNFQFDTSFMYMIAGLCMLKLYQTRHPDINASAYSAYASFAVVIMVTVLGVVFGKNDVWFWVIFSAIHVLASLALSTQIYYMGRFKIDLGIFRRAAMVFYTDCIQQCSRPLYMDRMVLLVVGNLVNWSFALFGLIYRPRDFASYMLGIFICNLLLYLAFYIIMKLRSSEKVLPVPLFCIVATAVMWAAALYFFFQNLSSWEGTPAESREKNRECILLDFFDDHDIWHFLSATALFFSFLVLLTLDDDLDVVRRDQIPVF
notes: human systemic RNAi defective transmembrane family member 1 (hSIDT1), full length, codon-optimized gene synthesized by GenScript, cloned into pEG BacMam; Made in cells that lack N-acetylglucosaminyltransferase I, so the protein lacks complex N-glycosylation (predicted sites N57, N67, N83, N136, N282); No cleavage of GFP-Strep-tag-II is described; Not modelled in the structure: the first 40 …
  stoichiometry N: 2
